# Measurements reported in the DeepSol protein solubility set.
# Assay: soluble on expression in E. coli; label from the status in PepcDB or PDB records
row,Sequence,soluble on expression in E. coli
1,MTIKEMPQPKTFGELKNLPLLNTDKPVQALMKIADELGEIFKFEAPGRVTRYLSSQRLIKEACDESRFDKNLSQALKFVRDFAGDGLFTSWTHEKNWKKAHNILLPSFSQQAMKGYHAMMVDIAVQLVQKWERLNADEHIEVPEDMTRLTLDTIGLCGFNYRFNSFYRDQPHPFITSMVRALDEAMNKLQRANPDDPAYDENKRQFQEDIKVMNDLVDKIIADRKASGEQSDDLLTHMLNGKDPETGEPLDDENIRYQIITFLIAGHETTSGLLSFALYFLVKNPHVLQKAAEEAARVLVDPVPSYKQVKQLKYVGMVLNEALRLWPTAPAFSLYAKEDTVLGGEYPLEKGDELMVLIPQLHRDKTIWGDDVEEFRPERFENPSAIPQHAFKPFGNGQRACPGQQFALHEATLVLGMMLKHFDFEDHTNYELDIKETLTLKPEGFVVKAKSKKIPLGGIPSPSTEQSAKKVRKKAENAHNTP,soluble
2,KHPNNAIIIGDNLDALKLLKSAYSEKIKMIYIDPPYNTGNDEFIYPDNFRQDYQKILREVGLMEIDENGKEIESESLKFFKNTQGSGTHSGWLSFMLPRLKLARDLLKEDGVIFISIDDNECANLKILCDEIFGEDNFVGDFIRKTKSTTNDAKIGLNYQHEFLLCYAKDKNYTNLLGGEKNLENYKNPDNDPNGAWINDNPSAKSGNMKTGYFGVTNPYTNKVDYPPVGMFWRFSQNTIQKHIDEGRICFKKEHKDNERGFIYKRYLKDLKTTQKTFDSLIFSDNCYMNQAATKELLNLGMGEYFTYPKGVEFMKKIILHSTTPNEGDIILDFFAGSGTTVHAVMELNAEDKGNREFILVQIDEEIKEDESAYDFCKKELKSAKPVISDITIERVKRAAQKISQLSKDSGLDLGFKVYTLQDKVQII,not soluble
3,MLLNLFNEMRAAKVPVSLRELLDLINALKQRVIFADIDEFYFLARTILVKDERHFDKFDRAFGAYFNGLEKLDDHLQALIPEDWLRKEFERSLSDEERAQIQSLGGLDKLIDEFKKRLEEQKERHAGGNKWIGTGGTSPFGSGGYNPEGIRVGDAGERKGKAVKVWDQREYKNLDDQVDLGTRNIKVALRRLRKFARQGAADELDIDGTIDHTARDAGLLNIQMRPERRNTIKLLLLFDIGGSMDSHVKVCEELFSACKTEFKHMEYFYFHNFIYETVWKNNLRRGSERTATQDLLHKYGADYKVIFIGDASMAPYEITQPGGSVEHWNEEAGYVWMQRFMAKFKKVIWINPYPKDAWDYTTSTHIVRDLIEQHMYPLTLQGLEDGMRYLA,not soluble
4,MSRDNQEIKAPEESSAEEQKEMDDKVTSPEKAEEIKLKSRYPNIGPKPGGSDFLRKRLQKGQKYFDSGDYNMAKAKMKNKQLPTAAPDKTEVTGDHIPTPQDLPQRKPSLVASKLAG,soluble
5,MKRIFVQNRELVVPGTLLAQGPYKNGRGTFREGSRIYSTVIGLVDIKGNTIRVIPLEGPYIPEVGDNVIGKIVDVKFSSWVVDIGAPYLANLKIQDFTDEKIDLLRTDLRKFFDIGDIIYGKVKAITEVNNIDLTTKGMPFNGGPLKGGQIVKITPSRVPRVIGRGGSMINMIKKLTMTRIIVGQNGWIWVNGKNEALEKLAIEAILKIDRESHTKGLTDRIKSLLLSRLQELKEKGVIEEIPELEEEPQEETEVNNNDGETRRT,soluble
6,MVERKRWSEEFSEWFNEVIEEAGILDKRYPVKGMNVWLPYGLKIMRNIEKFIHEEMERTGHQEVLFPALIPETEFKKEAEHIAGFEGEVFWVTHAGHEPLDVRLVLRPTSETAMYSMFALWIRSHADLPFKVYQIVNVYRYETKHTRPLIRVREISRFFEAHTAHADFEDAERQIKEDLEIFDNLMRKLALAYIISKRPEWDKFPGAFYSLGAEVVMPDGRTLQIGTMHNYKQNFSKAYNILYEKEDGTHDYVHQTTFGMSERLLAAVIAIHGDDRGMVLPPTIAPIQVVIVPIPKKGSEEEVYSYAKGIEEELRDAGIRVYLDLRDKRPGWKFYDWELKGVPVRVEVGPIDVQNSTVVLARRDKLEKITVKREELVDKVRELFEDIMEFLYERANEWLESHIKRVDTLEEAKAVFEDRRGIVEIPWCGEESCGLKMEEELEAKMLGIPYPEEKAKAPEGSKCPVCGREAKFIARFARTY,soluble
7,MAGDPMMKKDKDTNDQKSESHMKHNDESKVPEDMTSTNEGEFKVGDKVTITAGHMPGMKGAEATVKGAYKTYAYVVSYKPTNGNEKVNNHKWVVNEEIKDAPKDGFSKDDTVKLEANHMSGMKGATANIDNVKKTTVYVVDYKSKDNGKIIKNHKWMTGNELKARLEHHHHHH,soluble
8,MTEEFNESMINDIKEGDKVTGEVQQVEDKQVVVHINGGKFNGIIPISQLSTHHIENPSEVVKQGDEIEAYVTKIEVDEENDSGVYILSKRQLETEKSYEYLQEKLDNDEIIEAKVTEVVKGGLVVDVGQRGFVPASLISTDFIEDFSVFDGQTIRIKVEELDPENNRVILSRKAVEQAENDVKKASLLESLNAGDVIKGKVARLTNFGAFVDIGGVDGLVHVSELSHEHVDSPEDVVSVGQEVDVKVKSVEKDAERISLSIKDTLPTPFESIKGQFHEDDVIEGKVVRLANFGAFVEIAPGVQGLVHISEIAHEHIGTPGEKLEPGQQVNVKILGIDEENERISLSIKATLPKEDVVESDDATTQSYLSNDSIEDNPTLGDVFGDKFKDLKF,soluble
9,MGSDKIHHHHHHMKLTIAGDSHGKYMVAILEGLPSGIRVDEELIRRDLFRRRNCYGRGKRMKMEEDAFEIVSGLWKGITTGAPVTILIPNRAGNPVKDVRSVPRPGHIDYAAWVKYKLPDLNIYVERSSARWTVALTAAGSLLKSLLKEFGIEVLGFVTRLGNVEARDIPGDFEELKRRRDESVVFCPDPEATKEMVAEIDRAKEEGNTLGGKVKVIARGVPAGIGSYSDLFKKLDSKIGSLFFAIPAVKGVVIGSEEMWYGFDYLDEFELEDGKIKRKTNNLGGIEGGITNGEDVWVNVSVKPIPTTGKPLKSVDLRTMEPAKTPYVRSDVTAVPPASVVCEAALAVVISDALLEHLGDGNIDDLKRRFENENLPRWNDGFWKEHYR,not soluble
10,MVRVDQNLFNEVMYLLDELSQDITVPKNVRKVAQDSKAKLSQENESLDLRCATVLSMLDEMANDPNVPAHGRTDLYTIISKLEALS,soluble
11,MQNLRRAVFAGLVAGTLSEGAAATAGDGGFVEDSELQFLARTYYFNRDYRDSPNNAGRNRFKPRSERNGYREEATQGLRLQFASGYTPGSLGFGLDAHAMLGLQLDSGGGRTGTGNLPVGADGHPDHRYGKVGGALRLRHGETRLKYGQTTTSAPVFAASSNRTLAGMAYGLLLEDRSFDGLLLEGGRFTAASGPGESKVRGDISTVYGRLGAYPVRLDAVGFLGGQWQATERLQLSLYASRFDDIWQQAYFGASHRQPLGGERALRVDLDAYRTRDSGQSRFGRIDTLTSSLALGYEHGPQRITLAYQRVHGEQPFDYMAFGDGRSSASMVLANSVGYSDFNGPGERSWQLRYDLDLGALGLPGLSLHALHARGRAGASASSAAESIYAGLYGRDGRHRENDLGFAYRVKAGPLAGLALRASQAWHRGNASYLDGDIDETRLVVDYSRSIW,not soluble
12,SIDEEMQVEAAKALREALQKYDRGRGKWHGTGKSIEPAKLGDEEVWRAELAATEVARDVDLGGRWHPAVVLGVGEQDLSVGVEDGPAKGRVPRSDIKWMKGSFKDNFKLGDVVLVRKADEDWSLRQVPEVQGGFMAMDVNTGRVLAMQGGFSYQDSVFNRATQALRQPGSSFKPFVYAAALDSGYSPATIVVDAPIEVNTPQGLWRPKNASNKFYGPTPLRTGIERSRNLMTIRLAQEVSMPVVAGYAERFGVYDHMGPFLANALGSEETTLYKMVAAYAMFANGGERVEPTLVDRIQDRFGKTIYRHDQRDCVDCLSDRLEPDQAPRIVTNRERVMNAITAYQLTSMMRGVVERGTASGTVKLPVPTAGKTGTTNDAKDVWFIGFTSNIVAGCYIGYDRPQPLGRGASGGGMCGPVFQSFMTEAVKKFGGGPF,not soluble
13,ASNIHRIQQIVEAAERYNRKVAVSGRSMENIVAVAIELGYLKVKEGVLIGIDAINRYADNKIVIITTGSQGEPMSALTRMAAQEHKKVKIQEGDMVVISANPIPGNEKLVSRVINQLFKKGAEVIYEALADVHVSGHACQEELKLMHTLIKPRFFIPVHGEYRHLKQHKELATNLGMPKANVVIPEIGGVIELTRSSIKKTDTVVAGKVFVDGLGVGDVGNIVLRDRKHLSQDGIVTVVVTIEKVSGTVIAGPDIISRGFVYVRESEDLMEESKEIVKTALLECEEKHITEWATIKSNIKDVLRIFLYERTKRKPMILPIIME,not soluble
